Results taken from article PMC3243729.

Target: EGFP-N-Talin1-C-mCherry (UniProt P26039)
Experiment: single-molecule photobleaching step counting and point spread function fit (TIRF microscopy); living CV1 cells with low expression of EGFP-Talin1-mCherry; EGFP spots more than 500 nm from other EGFPs; bleaching steps counted and the spot shape fitted to a single or a dimeric PSF
Conditions: remark: other sources report otherwise

Substance: EGFP-N-Talin1-C-mCherry, P26039 1-2541
- stoichiometry N: 2
